Assay results as given in the supplement of paper PMC12042874.
± gives the uncertainty stated by the source.

Experiment: amyloid nucleation score (Sup35N fusion, yeast selection) (log enrichment); library NNK3; higher = more nucleation; inactive = no reads after selection
In short: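 The nucleation score, computed with DiMSum, is the log enrichment of output over input reads, centred on the mode score of non-aggregating sequences. Sequences with under 100 input reads were dropped. Reads were generated by Illumina sequencing of plasmid inserts from psi-negative yeast with Sup35N fused to peptides of 20 random codons, induced with 100 μM copper sulfate for 24 hours and grown 7 days at 30°C on medium lacking adenine and uracil.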
For FEWLWIFWYNLFWLWGNYSI, the amyloid nucleation score was “inactive”.
For SLYGKDYTKTVFSDAVFVCF, the amyloid nucleation score was “inactive”.
For WFRTGLAKNSISSGVGVMCH, the amyloid nucleation score was “inactive”.
In the case of KLLSMGVSTKRRT, the amyloid nucleation score is reported as “inactive”.
For GTYLKNF, the amyloid nucleation score was “inactive”.
For FLVLFTL, the amyloid nucleation score was “inactive”.
With YTPVIKCSYFTSIIGWAGPA the amyloid nucleation score was “inactive”.
In the case of RCGILW, the amyloid nucleation score is reported as “inactive”.
With ETVDSFVM the amyloid nucleation score was “inactive”.
With TRGSPRGRNEKSGYTSVMRG the amyloid nucleation score was “inactive”.
In the case of FDLVFLLYMGMTQ, the amyloid nucleation score is reported as “inactive”.
For LRGSYNVS, the amyloid nucleation score was “inactive”.
With GVLTTALVGTCWPSTCFYGL the amyloid nucleation score was “inactive”.
With KKPPHRLTVLMTGIAM the amyloid nucleation score was “inactive”.
NYFYGYQACVVHGISFTMGQ showed an amyloid nucleation score of 0.956 ± 0.19.
For IYLMISWQWGSGLQPNIRPA, the amyloid nucleation score was “inactive”.
In the case of RLGRLTPKMISYRKVWKYWG, the amyloid nucleation score is reported as “inactive”.
For NNNPVGILQNSCVGVIFNHS, the amyloid nucleation score was -0.517 ± 1.
For SGNTNDSSMHHQNLFFSA, the amyloid nucleation score was “inactive”.
With VQWAEVAEMKGWGVANAWW the amyloid nucleation score was “inactive”.
With YNRLIMSSELSMIGTTCISY the amyloid nucleation score was “inactive”.
With RDYKAHYLRCLYLWTMSLP the amyloid nucleation score was “inactive”.
In the case of HSCITFSLPCTFRQRFCLLS, the amyloid nucleation score is reported as “inactive”.
In the case of TCRICTFGVWDFCRTDERRH, the amyloid nucleation score is reported as 2.24 ± 0.069.
For MSGLLCAEIWSRCPASFIGD, the amyloid nucleation score was “inactive”.
In the case of VSCDEMHKINFYLKANVVLV, the amyloid nucleation score is reported as “inactive”.
In the case of ESFPFVSASDCSCSNR, the amyloid nucleation score is reported as “inactive”.
For EDHCSLFKLSAFTAYTGLAL, the amyloid nucleation score was “inactive”.
In the case of YRNRTVFALSGLSQGDLPEV, the amyloid nucleation score is reported as “inactive”.
With MSCYVV the amyloid nucleation score was “inactive”.
With NSTDRGLEFRTDHYHT the amyloid nucleation score was “inactive”.
With RYSSNRLTLMWDCIEGGSAW the amyloid nucleation score was 1.03 ± 0.14.
For IGFAD, the amyloid nucleation score was “inactive”.
In the case of ISILEVKMWLLWTELERTIT, the amyloid nucleation score is reported as “inactive”.
For YNTRGQSSFSPCEIMWLVHI, the amyloid nucleation score was “inactive”.
With DFYFRVIVVGGHCVSDTSFL the amyloid nucleation score was “inactive”.
For HKILRSVGFGRILAYGLLDI, the amyloid nucleation score was “inactive”.
In the case of ISVVGILLGLSSFPVYSVSW, the amyloid nucleation score is reported as “inactive”.
Substance RCVGEACVNGGCLITITYVG has an amyloid nucleation score of 1.16 ± 0.11.
FGTCLNLYL showed an amyloid nucleation score of 1.3 ± 0.11.
For RWNEAHITSYVYSRTSMWVF, the amyloid nucleation score was “inactive”.
With YLCTGQAGCAYMPRS the amyloid nucleation score was “inactive”.
With IVYTMCDFWSSMDLVDNLQG the amyloid nucleation score was “inactive”.
LEFRNHPMSYYTLVGQCVRK showed an amyloid nucleation score of -0.372 ± 0.8.
With YFGVTLLMYERARWASFYRF the amyloid nucleation score was “inactive”.
With QTVNWSDDL the amyloid nucleation score was “inactive”.
For FSYEMFNAMGYFPIASLCSF, the amyloid nucleation score was “inactive”.
For PLRLCNPLSGFVPLLFTAFR, the amyloid nucleation score was “inactive”.
For AKAEC, the amyloid nucleation score was “inactive”.
For MIWWYGVRSMIIDTGWYMHC, the amyloid nucleation score was “inactive”.
In the case of HEYKCKL, the amyloid nucleation score is reported as “inactive”.
For YHWSS, the amyloid nucleation score was “inactive”.
In the case of HYWVLSFLNETALIIEFWH, the amyloid nucleation score is reported as “inactive”.
In the case of SYNTYSVYGWGKGPRNYDWQ, the amyloid nucleation score is reported as “inactive”.
YFEVDNLRRIQRRLICLGPE gave an amyloid nucleation score of 0.891 ± 0.27.
In the case of LALFVSCICVIVSELFFTMN, the amyloid nucleation score is reported as “inactive”.
In the case of SWVTDWIL, the amyloid nucleation score is reported as “inactive”.
In the case of KNFSFKATDWIVKSSVARCR, the amyloid nucleation score is reported as “inactive”.
With RFLLYPAPWRVFAIPYSEHL the amyloid nucleation score was “inactive”.
For METCPLCIICLYGKWIRFSR, the amyloid nucleation score was “inactive”.
For ALIKFLEFKGRSAWSMRFIA, the amyloid nucleation score was “inactive”.
For YNCFDDNTYPYSANGSRNSL, the amyloid nucleation score was “inactive”.
With VSLLRGVLGLVV the amyloid nucleation score was “inactive”.
With AIIVQLIDLLMRPARPVFVE the amyloid nucleation score was “inactive”.
In the case of KNIPFYIGWVEVSTAGARYP, the amyloid nucleation score is reported as “inactive”.
For NNLFELPWKFYEQRNVAELM, the amyloid nucleation score was “inactive”.
In the case of VLVGDDCDRTVANVQ, the amyloid nucleation score is reported as “inactive”.
For GAPGLMFVFLKKSVFLYSYL, the amyloid nucleation score was “inactive”.
For GWYLFC, the amyloid nucleation score was “inactive”.
For GCGSYSDQGRCSTSVSVC, the amyloid nucleation score was “inactive”.
VLYVIRNYSGDG gave an amyloid nucleation score of 1.62 ± 0.096.
For SYMYLRGVLRYLVDMFALWI, the amyloid nucleation score was “inactive”.
In the case of CNYNTTM, the amyloid nucleation score is reported as “inactive”.
For CSSSRVWVHKHYGTYRHFIL, the amyloid nucleation score was “inactive”.
In the case of YIVLKYSEMRTRVTDYRTTG, the amyloid nucleation score is reported as “inactive”.
With WLWVGIGLRSYELLNEEW the amyloid nucleation score was “inactive”.
In the case of SVRRHSSGCMNNAL, the amyloid nucleation score is reported as “inactive”.
In the case of WLSRLVGFALSTKLGP, the amyloid nucleation score is reported as “inactive”.
For VFISLVLSDLRSFARVVLGG, the amyloid nucleation score was “inactive”.
For GSVYETNDTELLRVTLR, the amyloid nucleation score was “inactive”.
For PTEVYEATYCHFTNLL, the amyloid nucleation score was “inactive”.
LRRYVARNRRSYFTESLPRA gave an amyloid nucleation score of -0.123 ± 1.4.
For SAGMNMLYMYECKSSSMGFC, the amyloid nucleation score was “inactive”.
With MNLDNFLFKVCLGSCF the amyloid nucleation score was “inactive”.
With GKYKFSLF the amyloid nucleation score was “inactive”.
In the case of FLETV, the amyloid nucleation score is reported as “inactive”.
For ISRSVIIDSQRGLCCQTWDW, the amyloid nucleation score was “inactive”.
With GASNMFHDPELSG the amyloid nucleation score was “inactive”.
In the case of IVFRLANKPRRANRC, the amyloid nucleation score is reported as “inactive”.
With RYFSW the amyloid nucleation score was “inactive”.
With AYGRVTMCIGWKDPYGRCL the amyloid nucleation score was 0.638 ± 0.31.
For EAYDGKSSICSRCS, the amyloid nucleation score was “inactive”.
For YTIALTRGLKFMVINCRTFY, the amyloid nucleation score was “inactive”.
For MVFQYRYFSLLLVWSNCSGA, the amyloid nucleation score was “inactive”.
With MFVVMWVDYLAEHMFYGRWW the amyloid nucleation score was “inactive”.
With IIVMDCNGKLNGINHWVRVD the amyloid nucleation score was “inactive”.
In the case of CTTRMCNGLWNARLRGTTSP, the amyloid nucleation score is reported as “inactive”.
With FIHLMLNMRFWRNTFNMPHA the amyloid nucleation score was “inactive”.
For RSNTPPGISLARPFYPKNRV, the amyloid nucleation score was “inactive”.
In the case of FIHMCISFSGYFYDYCFNFN, the amyloid nucleation score is reported as “inactive”.
For NSYFKPVKSCNLQLGEVTLQ, the amyloid nucleation score was “inactive”.
In the case of CVMLVAVQGR, the amyloid nucleation score is reported as “inactive”.
For NKPGVV, the amyloid nucleation score was “inactive”.
For FVEISRSGLLWFDF, the amyloid nucleation score was “inactive”.
With RSHRIF the amyloid nucleation score was “inactive”.
In the case of MSVRGHSSTVVYLCREPGLK, the amyloid nucleation score is reported as 0.402 ± 0.38.
For LFGYDSISLINRGCVGGFNV, the amyloid nucleation score was “inactive”.
With LFCVPWVVISPHHSIHRIWV the amyloid nucleation score was “inactive”.
Work on TCCCVYGTMIISEYFHGSNM yielded an amyloid nucleation score of 2.73 ± 0.056.
For LQYRSL, the amyloid nucleation score was “inactive”.
For FNVLMGTSYFAISEIASVPA, the amyloid nucleation score was “inactive”.
Substance SECYKWRIFCNILNR has an amyloid nucleation score of 2.36 ± 0.058.
In the case of ADWYWFMAMQRNNLL, the amyloid nucleation score is reported as “inactive”.
In the case of VCGIVIRGKVPKDKQYNMGE, the amyloid nucleation score is reported as “inactive”.
In the case of DSVNRCFARGILSCLVCL, the amyloid nucleation score is reported as “inactive”.
With CFCQVSKANWLNR the amyloid nucleation score was “inactive”.
In the case of CIRPVLSHSYEIKNTGLGRT, the amyloid nucleation score is reported as “inactive”.
For MVREFTQNSKVCSTVLCDGV, the amyloid nucleation score was “inactive”.
For NFLVVSNRYLYMVPNGHIKL, the amyloid nucleation score was 2.96 ± 0.051.
With ASSLVVVCDAMSEASVLNKG the amyloid nucleation score was “inactive”.
For FVMTIM, the amyloid nucleation score was “inactive”.
For FKAWMSLKLSTRRLNSCVPR, the amyloid nucleation score was “inactive”.
For LKTCFIP, the amyloid nucleation score was “inactive”.
With DFEVR the amyloid nucleation score was “inactive”.
For VCLHDRLGVHVGQIRLGYRC, the amyloid nucleation score was “inactive”.
In the case of EFYFATRMMF, the amyloid nucleation score is reported as 1.09 ± 0.092.
For FYDLFN, the amyloid nucleation score was “inactive”.
With FSILCKLVLRQLKNGSFYGF the amyloid nucleation score was -0.329 ± 0.77.
With SRQNIFLLRLKTMTGQSVNI the amyloid nucleation score was “inactive”.
TRDQHIIYYFVEPFKIITGM showed an amyloid nucleation score of 1.5 ± 0.099.
In the case of SVYCCIDKLLHSAKSRLFMM, the amyloid nucleation score is reported as “inactive”.
In the case of LLFVVQWWFNRFFE, the amyloid nucleation score is reported as “inactive”.
IGSAVIWVFFCNGSGVGDGT gave an amyloid nucleation score of 2.08 ± 0.09.
For IRSLLLILVRSAVPSALSVN, the amyloid nucleation score was “inactive”.
For FGYYTWTAYER, the amyloid nucleation score was “inactive”.
Substance SNSYHIVVYVRYGHSHG has an amyloid nucleation score of 2.62 ± 0.083.
In the case of IDLTTDSLDM, the amyloid nucleation score is reported as “inactive”.
For YSCTFYTLCPENI, the amyloid nucleation score was 1.85 ± 0.07.
In the case of SEYLVMLTGWVTTHLQMLWV, the amyloid nucleation score is reported as “inactive”.
For VVMRFCWRKSTIVISFVTVM, the amyloid nucleation score was “inactive”.
For GLCRWVTPTAWSAIVVQFCV, the amyloid nucleation score was “inactive”.
With SRVNCLARLRSPARLMPMVR the amyloid nucleation score was “inactive”.
With GIGLCVGYE the amyloid nucleation score was “inactive”.
With IEVQFENFSCSR the amyloid nucleation score was “inactive”.
With RSSFKG the amyloid nucleation score was “inactive”.
Substance TTQILYTFY has an amyloid nucleation score of 1.56 ± 0.12.
For VNGTLGFIGRETLYGTTRLT, the amyloid nucleation score was “inactive”.
For VGQFVRGLVKLCNGMYYWWL, the amyloid nucleation score was “inactive”.
With VKDNFRFSLNRPMKRHVVWA the amyloid nucleation score was “inactive”.
In the case of AFRGCSSLYS, the amyloid nucleation score is reported as “inactive”.
With AFTHVTSVMTVQDSLGLCLL the amyloid nucleation score was “inactive”.
In the case of SVSPEWYSSLLGSLCGAGFL, the amyloid nucleation score is reported as “inactive”.
In the case of DRCWMCLEAALQVAACVGSG, the amyloid nucleation score is reported as “inactive”.
For LKLTHD, the amyloid nucleation score was “inactive”.
With DFGFWLVDVGWGPLLRYVAD the amyloid nucleation score was “inactive”.
With SGSSMTS the amyloid nucleation score was “inactive”.
With VLVAHMRGEPGVANEWPLFQ the amyloid nucleation score was “inactive”.
For RDFATTNGRDNIELHSQGNY, the amyloid nucleation score was “inactive”.
With PRPWRL the amyloid nucleation score was “inactive”.
